This is an account of results in patent publication US20130225434A1 (BOARD OF TRUSTEES OF THE UNIVERSITY OF ILLINOIS, published 2013).

Numbering of substitutions follows the chain as printed. Numbers in names are those of the source. Square brackets hold non-standard residues; d marks the D form. * marks the point of attachment. Biotin = O=C1N[C@H]2[C@H](CS[C@H]2CCCCC(=O)*)N1; pY = N[C@@H](Cc1ccc(OP(=O)(O)O)cc1)C(=O)O; pT = C[C@@H](OP(=O)(O)O)[C@H](N)C(=O)O; pS = N[C@@H](COP(=O)(O)O)C(=O)O

To fix the notation:
T1: BRCT-pS (SMILES …)
T1 construct: also called Biotin-BRCT-pS
T1 peptide: Biotin-SGSAYDI[pS]QVFPFAKKK-NH2

T2: WT FHA1 domain of S. cerevisiae Rad53, phage-displayed (protein III fusion on bacteriophage M13) (Saccharomyces cerevisiae; bacteriophage …, UniProt P22216 1-170)
T2 construct: not shown: minor coat protein III (pIII, gene III product) of bacteriophage M13
T2 sequence: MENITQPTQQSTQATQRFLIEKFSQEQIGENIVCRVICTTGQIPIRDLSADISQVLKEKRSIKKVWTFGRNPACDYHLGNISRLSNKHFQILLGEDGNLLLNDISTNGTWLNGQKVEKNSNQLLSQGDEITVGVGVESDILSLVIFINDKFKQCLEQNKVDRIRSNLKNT

T3: Rad9-pT peptide with SGS linker (SGS-SLEVpTEADATFYAKK) (yeast, SMILES …)
T3 construct: also called cognate pT peptide; Rad-pT
T3 peptide: Biotin-SGSSLEV[pT]EADATFYAKK-NH2

B1: A7 variant of the FHA1 domain, phage-displayed (designed binder, not shown: small tags and cut ends)
chain: T2 sequence with C34S, C38S, N121Y, C154S
notes: From the library built on the 3C-3S template
B2: A10 variant of the FHA1 domain, phage-displayed (designed binder, not shown: small tags and cut ends)
chain: T2 sequence with Q25H, C34S, C38S, N121Y, S142R, C154S
notes: as for B1
B3: G9 variant of the FHA1 domain, phage-displayed (designed binder, not shown: large carriers; small tags and cut ends)
chain: T2 sequence with Q13R, C34S, C38S, I104V, N121Y, C154S, R164S
notes: as for B1
B4: C12 variant of the FHA1 domain, phage-displayed (designed binder, not shown: small tags and cut ends)
chain: T2 sequence with C34S, C38S, W66R, C154S
notes: as for B1
B5: Rad9-pY (peptide)
peptide: Biotin-SGSSLEV[pY]EADATFYAKK-NH2
SMILES: CC(C)C[C@H](NC(=O)[C@H](CO)NC(=O)[C@H](CO)NC(=O)CNC(=O)[C@H](CO)NC(=O)CCCC[C@@H]1SC[C@@H]2NC(=O)N[C@@H]21)C(=O)N[C@@H](CCC(=O)O)C(=O)N[C@H](C(=O)N[C@@H](Cc1ccc(OP(=O)(O)O)cc1)C(=O)N[C@@H](CCC(=O)O)C(=O)N[C@@H](C)C(=O)N[C@@H](CC(=O)O)C(=O)N[C@@H](C)C(=O)N[C@H](C(=O)N[C@@H](Cc1ccccc1)C(=O)N[C@@H](Cc1ccc(O)cc1)C(=O)N[C@@H](C)C(=O)N[C@@H](CCCCN)C(=O)N[C@@H](CCCCN)C(N)=O)[C@@H](C)O)C(C)C
B6: Plk1-pT (peptide)
peptide: Biotin-SGSAGPMQS[pT]PLNGAKK-NH2
SMILES: CSCC[C@H](NC(=O)[C@@H]1CCCN1C(=O)CNC(=O)[C@H](C)NC(=O)[C@H](CO)NC(=O)CNC(=O)[C@H](CO)NC(=O)CCCC[C@@H]1SC[C@@H]2NC(=O)N[C@@H]21)C(=O)N[C@@H](CCC(N)=O)C(=O)N[C@@H](CO)C(=O)N[C@H](C(=O)N1CCC[C@H]1C(=O)N[C@@H](CC(C)C)C(=O)N[C@@H](CC(N)=O)C(=O)NCC(=O)N[C@@H](C)C(=O)N[C@@H](CCCCN)C(=O)N[C@@H](CCCCN)C(N)=O)[C@@H](C)OP(=O)(O)O
B7: Rad9-pS (peptide)
peptide: Biotin-SGSSLEV[pS]EADATFYAKK-NH2
SMILES: CC(C)C[C@H](NC(=O)[C@H](CO)NC(=O)[C@H](CO)NC(=O)CNC(=O)[C@H](CO)NC(=O)CCCC[C@@H]1SC[C@@H]2NC(=O)N[C@@H]21)C(=O)N[C@@H](CCC(=O)O)C(=O)N[C@H](C(=O)N[C@@H](COP(=O)(O)O)C(=O)N[C@@H](CCC(=O)O)C(=O)N[C@@H](C)C(=O)N[C@@H](CC(=O)O)C(=O)N[C@@H](C)C(=O)N[C@H](C(=O)N[C@@H](Cc1ccccc1)C(=O)N[C@@H](Cc1ccc(O)cc1)C(=O)N[C@@H](C)C(=O)N[C@@H](CCCCN)C(=O)N[C@@H](CCCCN)C(N)=O)[C@@H](C)O)C(C)C
B8: P (designed binder)
FHA1 domain displayed on M13 protein III: T2 sequence with C34P, C38S, C154S
notes: also called S34P
B9: Q (designed binder)
FHA1 domain displayed on M13 protein III: T2 sequence with C34Q, C38S, C154S
notes: also called S34Q
B10: N (designed binder)
FHA1 domain displayed on M13 protein III: T2 sequence with C34N, C38S, C154S
notes: also called S34N
B11: D (designed binder)
FHA1 domain displayed on M13 protein III: T2 sequence with C34D, C38S, C154S
notes: also called S34D
B12: G (designed binder)
FHA1 domain displayed on M13 protein III: T2 sequence with C34G, C38S, C154S
notes: also called S34G
B13: E (designed binder)
FHA1 domain displayed on M13 protein III: T2 sequence with C34E, C38S, C154S
notes: also called S34E
B14: C (designed binder)
FHA1 domain displayed on M13 protein III: T2 sequence with C38S, C154S
notes: also called S34C
B15: T (designed binder)
FHA1 domain displayed on M13 protein III: T2 sequence with C34T, C38S, C154S
notes: also called S34T
B16: H (designed binder)
FHA1 domain displayed on M13 protein III: T2 sequence with C34H, C38S, C154S
notes: also called S34H
B17: R (designed binder)
FHA1 domain displayed on M13 protein III: T2 sequence with C34R, C38S, C154S
notes: also called S34R
B18: K (designed binder)
FHA1 domain displayed on M13 protein III: T2 sequence with C34K, C38S, C154S
notes: also called S34K
B19: 3C-3S variant of the FHA1 domain, GST fusion (other)
chain: T2 sequence with C34S, C38S, C154S
notes: Cell lysate used in the ELISA; not shown: The N-terminal GST of the pGEX-2T vector and the vector junction residues
B20: 4C-4S variant of the FHA1 domain, GST fusion (other)
chain: T2 sequence with C34S, C38S, C74S, C154S
notes: as for B19
B21: D2 variant of the FHA1 domain, GST fusion (designed binder)
chain: T2 sequence with C34F, C38S, C154S
notes: as for B19

One assay has as its target T1, BRCT-pS. Briefly: phage ELISA; biotinylated peptide on Neutravidin, A405. Here is the method:
FIG. 9A is a photograph of 96-well plates containing phage supernatants from 96 individual clones, which were isolated after three rounds of selection, heated (50° C.), cooled, and added to microtiter plate wells coated with the phosphopeptide ligand. Binding of phage particles in the wells was monitored with an anti-M13 antibody conjugated to HRP. FIG. 9B is a graph showing the ratio of the ELISA signals for individual phage clones generated with wells contained with the target protein compared to a negative control protein (background).
Phage particles produced from 96 clones isolated after round #3, were heated at 50° C. for 3 hr and cooled to RT. The phage supernatants were then incubated with both the target peptide (500 ng/well) immobilized on NeutrAvidin (1 μg/well) coated plate wells and an unrelated target (background). Binding phage clones were detected using anti-M13 antibody conjugated to HRP (GE Healthcare). The green, colored product of the enzymatic reaction in the microtiter plate wells was measured at 405 nm using the FLUOstar OPTIMA plate reader (BMG Labtech). […] In some cases, the signal over background ratio ranged from 3 to 20 for clones (FIG. 9B).
(In general: An ELISA detects its analyte on a solid surface through an enzyme-linked reagent.)
As to B1, the binding result is “no binding”.

On to B2, for which the binding result is “no binding”. Turning to B3, the binding result is “no binding”. In the case of B4, the binding result was “no binding”.

For the next assay, the target named is T2, WT FHA1 domain of S. cerevisiae Rad53, …. The assay is described as follows: phage ELISA; biotinylated peptide on Neutravidin; anti-M13-HRP, A405 [a]. The text has this:
Binding of phage particles was detected using anti-M13 antibody conjugated to HRP. FIG. 4(b) is a graph of the results of ELISA experiments of GST fusions of the WT FHA1 domain and three of its variants, 3C-3S, 4C-4S, and D2, that bound specifically to the cognate pT peptide (Rad9-pT; shown as solid histograms) immobilized on plastic microtiter plate wells via Neutravidin. Binding was detected using anti-GST antibody conjugated to HRP. The peptide sequences for Rad9-pT, Rad9-T, Rad9-pS, Rad9-pY, Plk1-pT and BRCT-pS are SGSSLEVp[…] (SEQ ID NO: 1), […] (SEQ ID NO: 2), SGSSLEVp[…] (SEQ ID NO: 3), SGSSLEVp[…] (SEQ ID NO: 4), […]p[…] (SEQ ID NO: 5) and SGSAYDIp[…] (SEQ ID NO: 6), respectively. The peptide sequence for the WT FHA1 domain from S. cerevisiae Rad53 protein kinase includes […] (SEQ ID NO:7), which includes residues 1-170 of S. cerevisiae Rad53 (SEQ ID NO:8) (Liao et al. (2000) J. Mol. Biol 304, 941-51; Durocher et al. (1999) Mol Cell 4). […] The β-strands are labeled from 1 to 11 in the WT FHA1 domain structure and the N- and C-termini are noted.
For B5, the binding result is given as “no binding”. With B6, the binding result is listed as “no binding”. In the case of B7, the binding result is listed as “no binding”.

The target in a further assay is T3, Rad9-pT peptide with SGS linker …. Briefly: phage ELISA on immobilized Rad9-pT, phage normalised to the Flag epitope; anti-M13-HRP, A405. The text has this:
Through Kunkel mutagenesis (Yaffe (2002) Nat Rev Mol Cell Bol 3, 177-86), the amino acid residue at position 34 in the β1 strand of the D2 FHA 1 domain was replaced (from the naturally-occurring V) one at a time with each of the other naturally occurring amino acids and binding to the immobilized Rad9-pT peptide was monitored by phage ELISA. Phage binding was detected using anti-M13 antibody conjugated to Horse Radish Peroxidase (HRP). […] All the variants display an N-terminal Flag peptide and the amount of phage particles used for each variant in this experiment has been normalized for this epitope.
To amplify the phage particles displaying the recombinant FHA1 variants, TG1 bacterial cells (5 mL; Stratagene) harboring the phagemid DNA were infected at mid-log (OD₆₀₀ₙₘ=0.5-0.6) with M13K07 helper phage (New England Biolabs) at a multiplicity of infection (MOI) of 20 for 1 h at 37° C. at 150 rpm. Infected cells were centrifuged, and the pellet was resuspended in fresh Luria Bertani medium (LB: 10 g Tryptone, 5 g Yeast extract, and 10 g NaCl per liter) supplemented with 50 μg/mL carbenicillin and 50 μg/ml kanamycin, and phage were amplified overnight at 30° C. at 250 rpm. All of the phage ELISA steps were performed at room temperature. Biotinylated peptides (100 μL, 5 μg/mL) were immobilized on Nunc MaxiSorp flat-bottom 96 well plates (Thermo Fisher Scientific) via NeutrAvidin™ Biotin binding protein (100 μL, 10 μg/mL; Thermo Fisher Scientific) and blocked with 2% skim milk in 1×PBS (200 μL per well).
As to B8, the binding result is listed as “no binding”.

With B9, the binding result is “no binding”. For B10, the binding result was “no binding”. Regarding B11, the binding result was “no binding”. Still for that read-out and setting: in the case of B12 it was “no binding”. B13: the binding result is reported as “no binding”. Turning to B14, the binding result is on record as “no binding”.

As for B15, the binding result is recorded as “no binding”.

B16: the binding result is given as “no binding”. B17: the binding result is “no binding”.

As to B18, the binding result was “no binding”.

In another assay the target is T1, BRCT-pS. Briefly: ELISA with GST fusion (cell lysate); biotinylated peptide on Neutravidin; anti-GST-HRP, A405 [b].
Take B19: the binding result is “no binding”. In the case of B20, the binding result is reported as “no binding”.

For the molecule B21, the binding result is “no binding”.
